In paper PMC11472067 one finds fraction of pixels exhibiting FRET (chromatin binding) data, which are given here for 2 substances.

This assay addresses histone H2B tagged to mCherry (H2B-mCh) (UniProt P06899). As to the kind of experiment: FRET or BRET; phasor FLIM-FRET in live HeLa nuclei; donor eGFP-HP1α or eGFP-HP1α_(I165E) (stable, endogenous HP1α knocked down), acceptor H2B-mCh transiently transfected; fraction of pixels exhibiting FRET read as chromatin binding. For orientation: BRET reads energy transfer from a luciferase to a nearby fluorophore.

The substance “eGFP tagged to HP1α dimer mutant I165E (eGFP-HP1α_(I165E)) (from UniProt P45973 1-191) (natural protein)” returned a fraction of pixels exhibiting FRET (chromatin binding) of 11%.

As for “eGFP tagged to wild type HP1α (eGFP-HP1α) (from UniProt P45973 1-191) (natural protein)”, the fraction of pixels exhibiting FRET (chromatin binding) turned out to be 20%.
